Ki data for 49 molecules are collected here from patent US20110136733A1 (IPSEN PHARMA S A S, published 2011).

Broadly, the Ki is a measure of affinity in units of concentration, obtained from inhibition or displacement.

Where no end group is shown, it is not given here. [ ]: non-standard residue; d: D form. The star is where a group is joined. Psu = N-propylsuccinimide on the Cys sulfur (from N-propylmaleimide), CCCN1C(=O)CC(*)C1=O; Myristoyl = CCCCCCCCCCCCCC(=O)*; Ac6c = NC1(C(=O)O)CCCCC1; Nle = CCCC[C@H](N)C(=O)O; Orn = NCCC[C@H](N)C(=O)O; Ac5c = NC1(C(=O)O)CCCC1; Aib = CC(C)(N)C(=O)O

To fix the notation:
T1: human recombinant GIP receptor (human, UniProt P48546 22-466)
T1 construct: whole, on cells; Membranes of CHO-K1 cells expressing the receptor; also called hGIP receptor
T1 sequence (looked up): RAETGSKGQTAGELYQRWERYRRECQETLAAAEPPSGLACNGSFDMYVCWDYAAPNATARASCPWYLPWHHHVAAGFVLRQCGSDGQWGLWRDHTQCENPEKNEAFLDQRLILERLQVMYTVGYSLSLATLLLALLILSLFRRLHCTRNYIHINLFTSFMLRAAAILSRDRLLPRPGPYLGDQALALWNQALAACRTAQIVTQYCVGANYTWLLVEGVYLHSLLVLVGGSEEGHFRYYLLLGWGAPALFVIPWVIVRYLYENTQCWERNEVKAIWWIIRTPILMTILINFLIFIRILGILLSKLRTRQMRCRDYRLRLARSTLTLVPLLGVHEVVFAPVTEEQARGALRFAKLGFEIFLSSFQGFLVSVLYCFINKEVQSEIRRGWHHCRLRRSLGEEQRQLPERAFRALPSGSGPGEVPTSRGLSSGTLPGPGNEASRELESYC

B1: [Aib^2, A6c^7, Cys(Psu)^41]hGIP(1-42)-OH (peptide)
peptide: Y[Aib]EGTF[Ac6c]SDYSIAMDKIHQQDFVNWLLAQKGKKNDWKHNIC(Psu)Q-OH
notes: The synthesis text lists Fmoc-Ala-OH, not Aib, at the cycle for position 2

For this assay, the target named is T1, human recombinant GIP receptor. Nature of the assay: [125I]GIP competition, membranes of CHO-K1 cells expressing human GIP receptor.
On to Y[Aib]EGTF[Ac5c]SDYSIAMDKIHQQDFVNWLLAQKGKKNDWKHNITQ-OH [(Aib^2, A5c^7)hGIP(1-42)-OH], for which the Ki worked out at 410 pM.

Turning to YXEGTFXSDYSIAXDKIHQQDFVNWLLAQK (Aib at 2; A6c at 7 and 14; C-terminal amide) [(Aib^2, A6c^7, 14)hGIP(1-30)-NH2], the Ki turned out to be 1190 pM. For the molecule [Orn](Myristoyl)AEGTF[Ac6c]SDYSIAMDKIHQQDFVNWLLAQKGKKNDWKHNITQ-OH [[Orn^1(N-C(O)-(CH2)12-CH3), A6c^7]hGIP(1-42)-OH], the Ki amounted to 21500 pM.

Consider YXEGTFXSDYSIAMDKIHQQDFVNWLLAQK (Aib at 2; A6c at 7; C-terminal amide) [(Aib^2, A6c^7)hGIP(1-30)-NH2], for which the Ki came out at 30 pM.

Turning to YXEGTFISDYSIAXDKIHQQDFVNWLLAQKGKKNDWKHNITQ (A5c at 2; Nle at 14; C-terminal free acid) [(A5c^2, Nle^14)hGIP(1-42)-OH], the Ki was 15900 pM.

With YXEGTFISDYXIAXDKIHQQDFVNWLLAQKGKKNDWKHNITQ (Aib at 2 and 11; A6c at 14; C-terminal free acid) [(Aib^2, 11, A6c^14)hGIP(1-42)-OH], the Ki worked out at 730 pM.

As to YAXGTFISDYSIXXDKIHQQDFVNWLLAQKGKKNDWKHNITQ (Dhp at 3; Aib at 13; Nle at 14; C-terminal free acid) [(Dhp^3, Aib^13, Nle^14)hGIP(1-42)-OH], the Ki amounted to 727000 pM. Consider YXEGTFISDYSXAMDKIHQQDFVNWLLAQKGKKNDWKHNITQ (Aib at 2 and 12; C-terminal free acid) [(Aib^2, 12)hGIP(1-42)-OH], for which the Ki was found to be 4980 pM. On to YAEGTFISDYXIAMDKIHQQDFVNWLLAQKGKKNDWKHNXTQ (D-Ala at 2; A5c at 11 and 40; C-terminal free acid, X stands for the non-natural residue) [(D-Ala^2, A5c^11,40)hGIP(1-42)-OH], for which the Ki was 590 pM. YAEGTFISDYXIAMDKIHQQDFVNWLLAQKGKKNDWKHNIXQ (D-Ala at 2; A5c at 11 and 41; C-terminal free acid, X stands for the non-natural residue) [(D-Ala^2, A5c^11, 41)hGIP(1-42)-OH]: the Ki worked out at 360 pM. On to YAPGTFISDYSIAXDKIHQQDFVNWLLAQKGKKNDWKHNITQ (A6c at 14; C-terminal free acid) [(Pro^3, A6c^14)hGIP(1-42)-OH], for which the Ki worked out at 214000 pM. Turning to YXEGTFXSDYSIAXDKIHQQDFVNWLLAQKGKKNDWKHNITQ (A5c at 2 and 7; A6c at 14; C-terminal free acid) [(A5c^2, 7, A6c^14)hGIP(1-42)-OH], the Ki came out at 34400 pM. On to YXEGTFISDYSXAMDKIHQQDFVNWLLAQKGKKNDWKHNITQ (Aib at 2; A5c at 12; C-terminal free acid) [(Aib^2, A5c^12)hGIP(1-42)-OH], for which the Ki was found to be 1650 pM.

Take YXEGTFISDYXIAXDKIHQQDFVNWLLAQKGKKNDWKHNITQ (Aib at 2; A5c at 11; A6c at 14; C-terminal free acid) [(Aib^2, A5c^11, A6c^14)hGIP(1-42)-OH]: the Ki is 180 pM. In the case of YAXGTFISDYSIAXDKIHQQDFVNWLLAQKGKKNDWKHNITQ (4Hyp at 3; A6c at 14; C-terminal free acid) [(4Hyp^3, A6c^14)hGIP(1-42)-OH], the Ki came out at 910000 pM. As for YAPGTFISDYXIAXDKIHQQDFVNWLLAQKGKKNDWKHNITQ (A5c at 11; A6c at 14; C-terminal free acid) [(Pro^3, A5c^11, A6c^14)hGIP(1-42)-OH], the Ki was found to be 648000 pM.

As to YXEGTFISDYXIAMDKIHQQDFVNWLLAQKGKKNDWKHNITQ (Aib at 2; A5c at 11; C-terminal free acid) [(Aib^2, A5c^11)hGIP(1-42)-OH], the Ki came to 80 pM.

Consider YAPGTFISDYSIXXDKIHQQDFVNWLLAQKGKKNDWKHNITQ (Aib at 13; Nle at 14; C-terminal free acid) [(Pro^3, Aib^13, Nle^14)hGIP(1-42)-OH], for which the Ki amounted to 667000 pM.

With YAXGTFISDYSIXXDKIHQQDFVNWLLAQKGKKNDWKHNITQ (hPro at 3; Aib at 13; Nle at 14; C-terminal free acid) [(hPro^3, Aib^13, Nle^14)hGIP(1-42)-OH], the Ki is 330000 pM. As for YAEGTFISDYXIAXDKIHQQDFVNWLLAQKGKKNDWKHNIXQ (D-Ala at 2; A6c at 11, 14 and 41; C-terminal free acid, X stands for the non-natural residue) [(D-Ala^2, A6c^11, 14, 41)hGIP(1-42)-OH], the Ki is 6670 pM. With YXEGTFXSDYSIAXDKIHQQDFVNWLLAQKGKKNDWKHNITQ (Aib at 2; A6c at 7 and 14; C-terminal free acid) [(Aib^2, A6c^7, 14)hGIP(1-42)-OH] the figure was 830 pM; with YXEGTFXSDYSIAXDKIHQQDFVNWLLAQKGKKNDWKHNITQ (Aib at 2; A5c at 7; A6c at 14; C-terminal free acid) [(Aib^2, A5c^7, A6c^14)hGIP(1-42)-OH], 630 pM. With YXEGTFISDYXIAXDKIHQQDFVNWLLAQKGKKNDWKHNITQ (Aib at 2; A5c at 11; Nle at 14; C-terminal free acid) [(Aib^2, A5c^11, Nle^14)hGIP(1-42)-OH], the Ki came out at 430 pM. Turning to YAXGTFISDYXIAMDKIHQQDFVNWLLAQKGKKNDWKHNITQ (Tic at 3; A5c at 11; C-terminal free acid) [(Tic^3, A5c^11)hGIP(1-42)-OH], the Ki came out at 503000 pM. For YXEGTFXSDYSIAXDKIHQQDFVNWLLAQKGKKNDWKHNITQ (Aib at 2; A5c at 7 and 14; C-terminal free acid) [(Aib^2, A5c^7, 14)hGIP(1-42)-OH], the Ki amounted to 220 pM. With YXEGTFISDYSIXXDKIHQQDFVNWLLAQKGKKNDWKHNITQ (Aib at 2 and 13; Nle at 14; C-terminal free acid) [(Aib^2, 13, Nle^14)hGIP(1-42)-OH] the figure was 50 pM.

As for XAEGTFISDYSIXMDKIHQQDFVNWLLAQKGKKNDWKHNITQ (4Hppa (3-(4-hydroxyphenyl)propionic acid) at 1; Aib at 13; C-terminal free acid) [(4Hppa^1, Aib^13)hGIP(1-42)-OH], the Ki came to 2250 pM. YAXGTFISDYXIAXDKIHQQDFVNWLLAQKGKKNDWKHNITQ (Tic at 3; A5c at 11; A6c at 14; C-terminal free acid) [(Tic^3, A5c^11, A6c^14)hGIP(1-42)-OH]: the Ki is 754000 pM. With YXEGTFISDYSIAXDKIHQQDFVNWLLAQKGKKNDWKHNITQ (Aib at 2; A6c at 14; C-terminal free acid) [(Aib^2, A6c^14)hGIP(1-42)-OH], the Ki is 70 pM.

In the case of YXEGTFISDYXIAXDKIHQQDFVNWLLAQKGKKNDWKHNITQ (Aib at 2 and 11; Nle at 14; C-terminal free acid) [(Aib^2, 11, Nle^14)hGIP(1-42)-OH], the inhibition constant (Ki) is 290 pM. Y[Aib]EGTF[Ac6c]SDYSIAMDKIHQQDFVNWLLAQKGKKNDWKC(Psu)NITQ-OH [[Aib^2, A6c^7, Cys(Psu)^38]hGIP(1-42)-OH]: the Ki came out at 5050 pM. With B1 the figure was 63600 pM. For Y[Aib]EGTF[Ac6c]SDYSIAMDKIHQQDFVNWLLAQKGKKNDWKHC(Psu)ITQ-OH [[Aib^2, A6c^7, Cys(Psu)^39]hGIP(1-42)-OH], the Ki is 13800 pM.

Turning to Y[Aib]EGTF[Ac6c]SDYSIAMDKIHQQDFVNWLLAQKGKKNDWKHNC(Psu)TQ-OH [[Aib^2, A6c^7, Cys(Psu)^40]hGIP(1-42)-OH], the Ki came out at 16000 pM.

As to YAPGTFISDYXIAMDKIHQQDFVNWLLAQK (A5c at 11; C-terminal amide) [(Pro^3, A5c^11)hGIP(1-30)-NH2], the Ki was found to be 65800 pM. For YXEGTFISDYXIAXDKIHQQDFVNWLLAQK (Aib at 2; A5c at 11; A6c at 14; C-terminal amide) [(Aib^2, A5c^11, A6c^14)hGIP(1-30)-NH2], the Ki worked out at 150 pM. As for Y[Aib]EGTF[Ac6c]SDYSIAMDKIHQQDFVNWLLAQKGKKNDWKHNITQ-OH [(Aib^2, A6c^7)hGIP(1-42)-OH], the figure is 300 pM; as for YXEGTFISDYXIAMDKIHQQDFVNWLLAQK (Aib at 2; A5c at 11; C-terminal amide) [(Aib^2, A5c^11)hGIP(1-30)-NH2], 90 pM; as for Y[Aib]EGTF[Ac6c]SDYSIAMDKIHQQDFVNWLLAQKGKKNDWKHNITQQ-OH [(Aib^2, A6c^7, Gln^43)hGIP(1-43)-OH], 940 pM. For the molecule YXEGTFISDYSIXMDKIHQQDFVNWLLAQK (Aib at 2 and 13; C-terminal amide) [(Aib^2, 13)hGIP(1-30)-NH2], the Ki stood at 330 pM. In the case of YXEGTFISDYXIAXDKIHQQDFVNWLLAQK (Aib at 2; A5c at 11; Nle at 14; C-terminal amide) [(Aib^2, A5c^11, Nle^14)hGIP(1-30)-NH2], the Ki was 160 pM. As for YXEGTFISDYSIXXDKIHQQDFVNWLLAQK (Aib at 2 and 13; Nle at 14; C-terminal amide) [(Aib^2, 13, Nle^14)hGIP(1-30)-NH2], the figure is 90 pM; as for Y[Aib]PGTFISDYSI[Aib][Nle]DKIHQQDFVNWLLAQK-NH2 [(Aib^2, 13, Pro^3, Nle^14)hGIP(1-30)-NH2], 70 pM.

Consider Y[Aib]EG[Ac5c]FISDYSIAMDKIHQQDFVNWLLAQKGKKNDWKHNITQ-OH [(Aib^2, A5c^5)hGIP(1-42)-OH], for which the Ki worked out at 2260 pM. Y[Aib]EGTF[Ac6c]SDYSIA[Nle]DKIHQQDFVNWLLAQKGKKNDWKHNITQ-OH [(Aib^2, A6c^7, Nle^14)hGIP(1-42)-OH]: the Ki stood at 450 pM. Turning to YAEGTFISDYXIAMDKIHQQDFVNWLLAQKGKKNDWKHNITQH (D-Ala at 2; A5c at 11; C-terminal free acid, X stands for the non-natural residue) [(D-Ala^2, A5c^11, His^43)hGIP(1-43)-OH], the Ki came to 560 pM.

Consider YGEGTFISDYXIAMDKIHQQDFVNWLLAQKGKKNDWKHNITQH (A5c at 11; C-terminal free acid) [(Gly^2, A5c^11, His^43)hGIP(1-43)-OH], for which the Ki worked out at 970 pM. Take Y[Aib]EG[Aib]FISDYSIAMDKIHQQDFVNWLLAQKGKKNDWKHNITQ-OH [(Aib^2, 5)hGIP(1-42)-OH]: the Ki is 4080 pM. As for Y[Aib]EGTF[Ac5c]SDYSIA[Nle]DKIHQQDFVNWLLAQKGKKNDWKHNITQ-OH [(Aib^2, A5c^7, Nle^14)hGIP(1-42)-OH], the figure is 690 pM.
